# Starred links: 1 amine or outer side, 2 acyl side, 3 side chain; linkers in the order of their positions; H or OH if unused. Non-standard residues stand in square brackets, D forms with d. Groups on a side chain read outwards from the residue. No end group written: not given here. *: point of attachment. C20 diacid = O=C(O)CCCCCCCCCCCCCCCCCCC(=O)*; γGlu = O=C(O)[C@H](CCC(=O)[*:2])N[*:1]; 4Pal = N[C@@H](Cc1ccncc1)C(=O)O; αMeL = CC(C)C[C@](C)(N)C(=O)O; AEEA = NCCOCCOCC(=O)O; Aib = CC(C)(N)C(=O)O
# B1: Example 69 (peptide)
# peptide: Y[Aib]EGTFISDYSI[αMeL]LDKK([AEEA-AEEA-γGlu-C20 diacid])HQ[Aib]DFVEYLLEGGPSSGAPPPS-NH2
# modifications: N-terminus assumed
# SMILES: CC[C@H](C)[C@H](NC(=O)[C@H](Cc1ccccc1)NC(=O)[C@@H](NC(=O)CNC(=O)[C@H](CCC(=O)O)NC(=O)C(C)(C)NC(=O)[C@@H](N)Cc1ccc(O)cc1)[C@@H](C)O)C(=O)N[C@@H](CO)C(=O)N[C@@H](CC(=O)O)C(=O)N[C@@H](Cc1ccc(O)cc1)C(=O)N[C@@H](CO)C(=O)N[C@H](C(=O)N[C@@](C)(CC(C)C)C(=O)N[C@@H](CC(C)C)C(=O)N[C@@H](CC(=O)O)C(=O)N[C@@H](CCCCN)C(=O)N[C@@H](CCCCNC(=O)COCCOCCNC(=O)COCCOCCNC(=O)CC[C@H](NC(=O)CCCCCCCCCCCCCCCCCCC(=O)O)C(=O)O)C(=O)N[C@@H](Cc1c[nH]cn1)C(=O)N[C@@H](CCC(N)=O)C(=O)NC(C)(C)C(=O)N[C@@H](CC(=O)O)C(=O)N[C@@H](Cc1ccccc1)C(=O)N[C@H](C(=O)N[C@@H](CCC(=O)O)C(=O)N[C@@H](Cc1ccc(O)cc1)C(=O)N[C@@H](CC(C)C)C(=O)N[C@@H](CC(C)C)C(=O)N[C@@H](CCC(=O)O)C(=O)NCC(=O)NCC(=O)N1CCC[C@H]1C(=O)N[C@@H](CO)C(=O)N[C@@H](CO)C(=O)NCC(=O)N[C@@H](C)C(=O)N1CCC[C@H]1C(=O)N1CCC[C@H]1C(=O)N1CCC[C@H]1C(=O)N[C@@H](CO)C(N)=O)C(C)C)[C@@H](C)CC
# B2: Example 70 (peptide)
# peptide: Y[Aib]EGTFISDYSI[αMeL]LDKK([AEEA-AEEA-γGlu-C20 diacid])HQ[Aib]DFVE[4Pal]LLATGPSSGAPPPS-NH2
# modifications: N-terminus assumed
# SMILES: CC[C@H](C)[C@H](NC(=O)[C@H](Cc1ccccc1)NC(=O)[C@@H](NC(=O)CNC(=O)[C@H](CCC(=O)O)NC(=O)C(C)(C)NC(=O)[C@@H](N)Cc1ccc(O)cc1)[C@@H](C)O)C(=O)N[C@@H](CO)C(=O)N[C@@H](CC(=O)O)C(=O)N[C@@H](Cc1ccc(O)cc1)C(=O)N[C@@H](CO)C(=O)N[C@H](C(=O)N[C@@](C)(CC(C)C)C(=O)N[C@@H](CC(C)C)C(=O)N[C@@H](CC(=O)O)C(=O)N[C@@H](CCCCN)C(=O)N[C@@H](CCCCNC(=O)COCCOCCNC(=O)COCCOCCNC(=O)CC[C@H](NC(=O)CCCCCCCCCCCCCCCCCCC(=O)O)C(=O)O)C(=O)N[C@@H](Cc1c[nH]cn1)C(=O)N[C@@H](CCC(N)=O)C(=O)NC(C)(C)C(=O)N[C@@H](CC(=O)O)C(=O)N[C@@H](Cc1ccccc1)C(=O)N[C@H](C(=O)N[C@@H](CCC(=O)O)C(=O)N[C@@H](Cc1ccncc1)C(=O)N[C@@H](CC(C)C)C(=O)N[C@@H](CC(C)C)C(=O)N[C@@H](C)C(=O)N[C@H](C(=O)NCC(=O)N1CCC[C@H]1C(=O)N[C@@H](CO)C(=O)N[C@@H](CO)C(=O)NCC(=O)N[C@@H](C)C(=O)N1CCC[C@H]1C(=O)N1CCC[C@H]1C(=O)N1CCC[C@H]1C(=O)N[C@@H](CO)C(N)=O)[C@@H](C)O)C(C)C)[C@@H](C)CC
# Key:
# Assay in all cases: cell-based or functional assay
# [1] = molecular target: human GLP-1 receptor (human, UniProt P43220 24-463)
# [2] = molecular target: T1, human glucose-dependent insulinotropic peptide receptor (human, UniProt P48546 22-466)
# T1 sequence (looked up): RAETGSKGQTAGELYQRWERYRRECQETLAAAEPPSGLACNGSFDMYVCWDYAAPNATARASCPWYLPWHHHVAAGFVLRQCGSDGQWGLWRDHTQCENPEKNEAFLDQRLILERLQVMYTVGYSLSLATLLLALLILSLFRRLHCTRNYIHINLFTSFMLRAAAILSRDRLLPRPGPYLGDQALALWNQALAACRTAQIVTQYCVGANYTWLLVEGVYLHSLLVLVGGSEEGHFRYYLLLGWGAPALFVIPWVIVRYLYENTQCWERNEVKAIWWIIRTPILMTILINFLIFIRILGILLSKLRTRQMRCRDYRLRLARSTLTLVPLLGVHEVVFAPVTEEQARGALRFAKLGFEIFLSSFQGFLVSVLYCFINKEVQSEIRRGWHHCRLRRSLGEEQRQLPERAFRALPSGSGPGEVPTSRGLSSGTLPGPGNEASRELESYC
# [3] = molecular target: human glucagon receptor (human, UniProt P47871 26-477)
# Sequence of human glucagon receptor (P47871 26-477): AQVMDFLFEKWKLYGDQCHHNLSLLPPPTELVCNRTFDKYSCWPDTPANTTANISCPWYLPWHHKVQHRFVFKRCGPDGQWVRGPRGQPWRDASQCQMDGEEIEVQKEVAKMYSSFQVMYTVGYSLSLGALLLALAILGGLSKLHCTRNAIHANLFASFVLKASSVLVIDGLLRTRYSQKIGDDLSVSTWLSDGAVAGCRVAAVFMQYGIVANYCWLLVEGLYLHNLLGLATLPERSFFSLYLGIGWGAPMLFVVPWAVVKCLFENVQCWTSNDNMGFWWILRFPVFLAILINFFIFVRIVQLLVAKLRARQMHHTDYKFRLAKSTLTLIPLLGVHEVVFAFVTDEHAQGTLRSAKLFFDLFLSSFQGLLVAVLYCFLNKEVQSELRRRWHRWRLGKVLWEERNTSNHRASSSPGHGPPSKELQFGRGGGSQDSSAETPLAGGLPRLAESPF
Binder,hGLP1R cAMP Rel EC50 [1],hGIPR cAMP Rel EC50 [2],hGcgR cAMP Rel EC50 [3]
B1,> 5000 nM,0.0302 nM,803 nM
B2,> 5000 nM,0.0254 nM,3560 nM
